Data as given in doi:10.1101/580449 (bioRxiv, 2019).

Target: the molecule itself
Test: crystal structure

B1: CMP-sialic acid transporter homologue from Zea mays (CSTZM), wildtype-like crystallization construct (natural protein)
chain: MQWYLVAALLTILTSSQGILTTLSQSNGKYNYDYATIPFLAELFKLSVSGFFLWKECRTSPSVRMTKEWRSVRLYVVPSVIYLIHNNVQFATLTYVDPSTYQIMGNLKIVTTGILFRLVLKRKLSNIQWMAIVLLAVGTTTSQVKGCGDSPCDSLFSAPLEGYLLGILSACLSALAGVYTEYLMKKNNDSLYWQNVQLYTFGVIFNMGWLIYGDFKAGFELGPWWQRLFNGYSITTWMVVFNLGSTGLLVSWLMKYSDNIVKVYSTSMAMLLTMVLSIYLFSVKATIQLFLGIIICIISLQMYFMPVHMLIELPQTLPVTSKENLYFQ
binding result: binds
